Measured values as given in article PMC6913127, “Structures of MERS1, the 5′ processing enzyme of mitochondrial mRNAs in Trypanosoma brucei” (RNA, 2020).

B1: fluoresceinated MERS2 peptide F-SVSKQAVCLMERHLRRVPGARRNELKVALSKELKER [modified: fluorescein (F-) printed at the N-terminus; fluorescein (F-) printed at the N-terminus] [T. brucei] / T. brucei MERS1(37–395), his-tagged [Trypanosoma brucei … (parent complex)
chain 1: SVSKQAVCLMERHLRRVPGARRNELKVALSKELKER
chain 2: LVPRGSMDDALRGELASALDTEGHALPFDVHLQQPHSSGDGTAGDTSTIQLEKLSHPPARFDLLTNSFVYKWQTKAALARKVSGPMREWAAELKYRTGVHIELEPTYPERLSENAVKGSGSDDGDGTQWGAYETADDVDITVYLFGSERGIFNCHKLMEAAIQQDPVYVRLGIFRRLANSSEVEWLMLRRINRELRPPDIPPISLKLPGKWTLLYERYKEAAIRTLWEETGITVDASNVYPTGHLYQTVPQYYWRVPVRYFVAEVPSDIRVEGPQVVPLQYMRNWDARLLRQSPDPIDRAWAQLADPATGCAWMKASMIDQLQKPLRGDNYMAIRYTPPPYSNLQEVVGLGDGSITPSTGNGEDAS

Variants of: B1
Experiment: fluorescence polarization; value read at the highest MERS1 concentration point, about 13.3 µM (estimated from the x axis); parent: 53; read off a plot

Variant | response [mP]
chain 1 L29P, chain 1 E32P | ~21
